Data taken from patent publication US10519419B2, “Method for producing culture medium composition” (NISSAN CHEMICAL CORPORATION, priority 2014, dated 2019).

How the values were obtained:
[1] = test system: HeLa cell spheres; experiment: Cell suspension test with HeLa cell spheres; assay type: cell-based, human; details: DMEM/F-12, 37°C, 1 hr
Protocol: Human cervical cancer cell line HeLa (manufactured by DS PHARMA BIOMEDICAL CO., LTD.) was suspended in EMEM medium containing 10% (v/v) fetal bovine serum (manufactured by WAKO) at 250000 cells/mL, the suspension (10 mL) was plated on EZ SPHERE (manufactured by ASAHI GLASS CO., LTD.), and cultured in a CO2 incubator (5% CO2) for 3 days. The obtained suspension (10 mL) of spheres (diameter 100-200 μm) was centrifuged (200 G, 5 min) to allow for sphere sedimentation, and the supernatant was removed to give a sphere suspension (1.0 mL). Successively, the deacylated gellan gum-containing medium prepared above was placed in a 1.5 mL Eppendorf tube by 1.0 mL, and a HeLa cell sphere suspension (10 μL) was further added. The cell aggregate was dispersed by tapping, incubated at 37° C., and the dispersion state of the cells 1 hr later was visually observed.
In the same manner as in Reference Experimental Example 2, spheres of HeLa cells were formed, and several tens of the spheres were added to each medium (1 mL) prepared above, the mixture was stood still at 37° C. for 1 hr, and the suspended state of the sphere cells was visually observed. […] Furthermore, it was confirmed that addition of an equal amount of the medium to the cell suspension and centrifugation (300 to 400 G, 5 min) thereof result in sedimentation and recovery of the spheres of HeLa cells.
In the same manner as in Reference Experimental Example 2, spheres of HeLa cells were produced, and several tens of spheres were added to each medium (1 mL) prepared above, the mixture was stood still at 37° C. for 1 hr, and the suspended state of the sphere cells was visually observed. […] Furthermore, it was confirmed that centrifugation (200 G, 5 min) of the cell suspension containing 0.1% (w/v) diutan gum result in sedimentation and recovery of the spheres of HeLa cells.

[2] = State and viscosity measurement of medium composition (E type viscometer); assay type: physicochemical; details: DMEM/F-12; for viscosity: 37°C, 100 rpm
Protocol: The viscosity of the liquid containing the structure can be measured, for example, by the method described in the below-mentioned Examples. Specifically, it can be measured under 37° C. conditions and using an E-type viscosity meter (manufactured by Toki Sangyo Co., Ltd., TV-22 type viscosity meter, model: TVE-22L, corn roter: standard roter 1° 34′×R24, rotation number 100 rpm).
This aqueous solution was allowed to cool to room temperature with stirring, and sterilized at 121° C. for 20 min in an autoclave. […] The viscosity of the medium compositions was measured using an E type viscometer (manufactured by Toki Sangyo Co., Ltd., Viscometer TVE-22L, standard roter 1° 34′×R24) under 37° C. condition at 100 rpm for 5 min.
The medium compositions prepared above were subjected to a suspension test of HeLa cell spheres and a viscosity measurement, in the same manner as with the deacylated gellan gum-containing medium. The viscosity of 1.0% (w/v) methylcellulose was measured at 50 rpm due to the measurement range of the apparatus.

collagen
HeLa cell suspension/sedimentation ([1]; collagen 0.01% (w/v)): sedimentation | HeLa cell suspension/sedimentation ([1]; collagen 0.05% (w/v)): suspension | HeLa cell suspension/sedimentation ([1]; collagen 0.1% (w/v)): suspension | HeLa cell suspension/sedimentation ([1]; collagen 0.2% (w/v)): suspension | state ([2]; collagen 0.01% (w/v)): liquid | viscosity ([2]; collagen 0.01% (w/v)): 1.18 mPa · s | state ([2]; collagen 0.05% (w/v)): liquid/solid | viscosity ([2]; collagen 0.05% (w/v)): unmeasurable | state ([2]; collagen 0.1% (w/v)): solid (gel) | viscosity ([2]; collagen 0.1% (w/v)): unmeasurable | state ([2]; collagen 0.2% (w/v)): solid (gel) | viscosity ([2]; collagen 0.2% (w/v)): unmeasurable
